Assay results as given in paper PMC10241049, “Derivation of the small-angle scattering profile of a target biomacromolecule from a profile deteriorated by aggregates. AUC–SAS” (Journal of Applied Crystallography, 2023).

Molecular target: the molecule itself
Assay: AUC + other: small-angle X-ray scattering (AUC-SAS); sedimentation velocity AUC (45 000 r/min, interference optics) and laboratory SAXS, 298 K; 2.0 mg/ml in 100 mM Tris-HCl pH 7.5, 100 mM NaCl; the derived profile of the main component was compared with the structure of the 24-mer and with SEC-SAXS

B1: apoferritin (natural protein)
chain: SSQIRQNYSTEVEAAVNRLVNLYLRASYTYLSLGFYFDRDDVALEGVCHFFRELAEEKREGAERLLKMQNQRGGRALFQDLQKPSQDEWGTTLDAMKAAIVLEKSLNQALLDLHALGSAQADPHLCDFLESHFLDEEVKLIKKMGDHLTNIQRLVGSQAGLGEYLFERLTLKHD
notes: apoferritin; it uses PDB 4v1w as the structure of this protein; PDB 4v1w is horse spleen apoferritin (light chain); also called AF; AF5; source: bought: Merck, Sigma-Aldrich; purified by SEC (Superose 6 Increase 10/300 GL); copies: 24
  stoichiometry N: 24
